Sequences and labels used below:
B1: CDC14A (parent)
chain: GPHPKSKIENGYPLHAPEAYFPYF
B2: PBXIP1 (parent)
chain: LPVETLGPASRMDPESERALQAPH

The results in this text go back to the supplement of paper PMC10567573.
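Further: lentivirally expressed fusions sorted by FACS into six bins by GFP to DsRed ratio, PSI derived from sequencing read proportions per bin multiplied by bin number.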

In one series the parent is B1. Briefly: protein stability index of a GFP-peptide fusion (GPS, HEK-293T) (PSI 1-6); higher = more stable. The conditions noted are these: c terminus: a fixed tail appended.
With GPHVKSKIENGYPLHAPEAYFPYF [P4V], the protein stability index amounted to 2.84.

For GPHPKSKIENGYKLHAPEAYFPYF [P13K], the protein stability index was determined as 1.88.

Take GPHPKSKYENGYPLHAPEAYFPYF [I8Y]: the protein stability index worked out at 1.88.

GPHPKSKIENGYPLHAPEAYFPYP [F24P]: the protein stability index was 3.08.

Consider GPHPKSKIENGYPLSAPEAYFPYF [H15S], for which the protein stability index came out at 2.83.

For the variant GVHPKSKIENGYPLHAPEAYFPYF [P2V], the protein stability index was found to be 2.41.

For the variant GPHPKSKIANGYPLHAPEAYFPYF [E9A], the protein stability index was determined as 1.92.

For GPHPKSKINNGYPLHAPEAYFPYF [E9N], the protein stability index was determined as 1.91.

In the case of GPHPKSKIRNGYPLHAPEAYFPYF [E9R], the protein stability index came out at 1.6.

With GPHPKSKIENGYPLHAPLAYFPYF [E18L], the protein stability index turned out to be 2.03.

Take GPHPKMKIENGYPLHAPEAYFPYF [S6M]: the protein stability index turned out to be 1.6.

For GPHPKSGIENGYPLHAPEAYFPYF [K7G], the protein stability index amounted to 2.84.

Regarding GPHPKSKIENEYPLHAPEAYFPYF [G11E], the protein stability index worked out at 2.52.

On to GPHPKSKIENGYPLHLPEAYFPYF [A16L], for which the protein stability index is 1.95.

On to GPHPKSKIENGYPLHAPEAQFPYF [Y20Q], for which the protein stability index is 2.55.

As for GPHPKSKIENGYPLHAPEARFPYF [Y20R], the protein stability index was 2.44.

In the case of GPHPKSKIENGYPLHAPESYFPYF [A19S], the protein stability index is 2.35.

On to GPHPKSKIENGYPLHAPERYFPYF [A19R], for which the protein stability index came out at 1.78.

With GPHPKSKIENGYPLHAPEAYFPWF [Y23W], the protein stability index was 1.91.

The variants in the next series derive from B2. Described as above. The settings on record: c terminus: a fixed tail appended.
For LPWETLGPASRMDPESERALQAPH [V3W], the protein stability index was 4.55.

As to LPEETLGPASRMDPESERALQAPH [V3E], the protein stability index came to 5.36.

Turning to LPHETLGPASRMDPESERALQAPH [V3H], the protein stability index turned out to be 5.34.

In the case of LPCETLGPASRMDPESERALQAPH [V3C], the protein stability index was determined as 4.61.

On to LPNETLGPASRMDPESERALQAPH [V3N], for which the protein stability index is 5.42.

LPDETLGPASRMDPESERALQAPH [V3D]: the protein stability index is 5.5.

As for LPQETLGPASRMDPESERALQAPH [V3Q], the protein stability index amounted to 5.07.

With LPIETLGPASRMDPESERALQAPH [V3I], the protein stability index is 4.92.

As for LPFETLGPASRMDPESERALQAPH [V3F], the protein stability index was determined as 4.88.

Take LPPETLGPASRMDPESERALQAPH [V3P]: the protein stability index turned out to be 5.25.

Take LPMETLGPASRMDPESERALQAPH [V3M]: the protein stability index amounted to 4.74.

As to LPRETLGPASRMDPESERALQAPH [V3R], the protein stability index was 4.27.

Turning to LPSETLGPASRMDPESERALQAPH [V3S], the protein stability index came out at 4.83.

On to LPAETLGPASRMDPESERALQAPH [V3A], for which the protein stability index was 4.73.

Turning to LPYETLGPASRMDPESERALQAPH [V3Y], the protein stability index came out at 5.04.

Turning to LPTETLGPASRMDPESERALQAPH [V3T], the protein stability index worked out at 5.56.

Turning to LPGETLGPASRMDPESERALQAPH [V3G], the protein stability index is 4.78.

As for LPLETLGPASRMDPESERALQAPH [V3L], the protein stability index is 4.63.

On to LPKETLGPASRMDPESERALQAPH [V3K], for which the protein stability index amounted to 5.38.

Regarding LGVETLGPASRMDPESERALQAPH [P2G], the protein stability index came to 4.98.

In the case of LYVETLGPASRMDPESERALQAPH [P2Y], the protein stability index is 3.13.

On to LHVETLGPASRMDPESERALQAPH [P2H], for which the protein stability index is 4.71.

Turning to LTVETLGPASRMDPESERALQAPH [P2T], the protein stability index turned out to be 4.36.

As for LRVETLGPASRMDPESERALQAPH [P2R], the protein stability index is 4.05.

Regarding LWVETLGPASRMDPESERALQAPH [P2W], the protein stability index turned out to be 1.53.

LQVETLGPASRMDPESERALQAPH [P2Q]: the protein stability index stood at 4.47.

With LSVETLGPASRMDPESERALQAPH [P2S], the protein stability index turned out to be 4.4.

Consider LEVETLGPASRMDPESERALQAPH [P2E], for which the protein stability index was found to be 3.99.

LLVETLGPASRMDPESERALQAPH [P2L]: the protein stability index was 3.37.

Regarding LDVETLGPASRMDPESERALQAPH [P2D], the protein stability index amounted to 5.

As to LMVETLGPASRMDPESERALQAPH [P2M], the protein stability index came out at 3.04.

With LAVETLGPASRMDPESERALQAPH [P2A], the protein stability index amounted to 4.24.

For the variant LKVETLGPASRMDPESERALQAPH [P2K], the protein stability index was determined as 3.95.

Regarding LFVETLGPASRMDPESERALQAPH [P2F], the protein stability index came to 3.42.

With LIVETLGPASRMDPESERALQAPH [P2I], the protein stability index is 3.21.

As for LVVETLGPASRMDPESERALQAPH [P2V], the protein stability index was determined as 3.33.

Take LNVETLGPASRMDPESERALQAPH [P2N]: the protein stability index came to 4.6.

As to LCVETLGPASRMDPESERALQAPH [P2C], the protein stability index was found to be 4.42.

Turning to LPVQTLGPASRMDPESERALQAPH [E4Q], the protein stability index is 4.46.

On to LPVDTLGPASRMDPESERALQAPH [E4D], for which the protein stability index amounted to 5.71.

In the case of LPVPTLGPASRMDPESERALQAPH [E4P], the protein stability index was determined as 5.25.

Regarding LPVSTLGPASRMDPESERALQAPH [E4S], the protein stability index was determined as 4.94.

For the variant LPVCTLGPASRMDPESERALQAPH [E4C], the protein stability index turned out to be 4.99.

For the variant LPVGTLGPASRMDPESERALQAPH [E4G], the protein stability index came to 5.03.

As to LPVWTLGPASRMDPESERALQAPH [E4W], the protein stability index worked out at 3.71.

LPVTTLGPASRMDPESERALQAPH [E4T]: the protein stability index worked out at 5.18.

Regarding LPVRTLGPASRMDPESERALQAPH [E4R], the protein stability index was found to be 5.09.

As to LPVMTLGPASRMDPESERALQAPH [E4M], the protein stability index came out at 4.74.

For LPVITLGPASRMDPESERALQAPH [E4I], the protein stability index came out at 4.98.

Take LPVFTLGPASRMDPESERALQAPH [E4F]: the protein stability index turned out to be 3.94.

For LPVLTLGPASRMDPESERALQAPH [E4L], the protein stability index worked out at 3.49.

Regarding LPVATLGPASRMDPESERALQAPH [E4A], the protein stability index amounted to 5.07.

On to LPVNTLGPASRMDPESERALQAPH [E4N], for which the protein stability index is 4.53.

Turning to LPVHTLGPASRMDPESERALQAPH [E4H], the protein stability index is 4.79.

Turning to LPVVTLGPASRMDPESERALQAPH [E4V], the protein stability index is 4.62.

For LPVKTLGPASRMDPESERALQAPH [E4K], the protein stability index turned out to be 4.99.

As to EPVETLGPASRMDPESERALQAPH [L1E], the protein stability index is 4.68.

Take PPVETLGPASRMDPESERALQAPH [L1P]: the protein stability index came to 5.09.

On to NPVETLGPASRMDPESERALQAPH [L1N], for which the protein stability index was found to be 5.38.

With TPVETLGPASRMDPESERALQAPH [L1T], the protein stability index came out at 4.64.

In the case of VPVETLGPASRMDPESERALQAPH [L1V], the protein stability index was 4.65.

In the case of GPVETLGPASRMDPESERALQAPH [L1G], the protein stability index is 5.38.

With YPVETLGPASRMDPESERALQAPH [L1Y], the protein stability index was found to be 5.17.

On to IPVETLGPASRMDPESERALQAPH [L1I], for which the protein stability index was 4.42.

As to CPVETLGPASRMDPESERALQAPH [L1C], the protein stability index amounted to 3.66.

Turning to DPVETLGPASRMDPESERALQAPH [L1D], the protein stability index was found to be 5.07.

Regarding WPVETLGPASRMDPESERALQAPH [L1W], the protein stability index was 5.13.

In the case of SPVETLGPASRMDPESERALQAPH [L1S], the protein stability index was 5.25.

As to HPVETLGPASRMDPESERALQAPH [L1H], the protein stability index was 4.89.

As for KPVETLGPASRMDPESERALQAPH [L1K], the protein stability index stood at 5.15.

For MPVETLGPASRMDPESERALQAPH [L1M], the protein stability index is 4.43.

With RPVETLGPASRMDPESERALQAPH [L1R], the protein stability index turned out to be 4.72.

In the case of APVETLGPASRMDPESERALQAPH [L1A], the protein stability index came out at 5.48.

For QPVETLGPASRMDPESERALQAPH [L1Q], the protein stability index is 5.33.

In the case of FPVETLGPASRMDPESERALQAPH [L1F], the protein stability index came to 4.61.
